Data taken from patent US20200131489, “ENGINEERED MEGANUCLEASES SPECIFIC FOR RECOGNITION SEQUENCES IN THE PCSK9 GENE” (Precision BioSciences, Inc., published 2020).

Assays:
Assay in all cases: cell_activity; HEK293 mRNA electroporation, 48 h, mock 0.40%
Details in all cases: tags: N-terminal SV40 NLS
PCS 7-8L.262 = biological target: T1, PCS 7-8L.262 (synthetic (I-CreI derived, …))
T1 chain: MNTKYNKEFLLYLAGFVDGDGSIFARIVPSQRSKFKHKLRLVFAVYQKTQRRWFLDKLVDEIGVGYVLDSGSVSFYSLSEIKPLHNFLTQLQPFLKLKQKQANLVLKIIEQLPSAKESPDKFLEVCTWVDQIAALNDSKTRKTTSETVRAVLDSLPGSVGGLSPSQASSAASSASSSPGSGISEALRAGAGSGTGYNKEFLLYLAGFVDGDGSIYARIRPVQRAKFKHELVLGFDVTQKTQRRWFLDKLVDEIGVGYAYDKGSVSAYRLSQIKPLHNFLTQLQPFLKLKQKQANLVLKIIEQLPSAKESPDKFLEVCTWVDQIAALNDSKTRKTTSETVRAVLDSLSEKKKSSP
Procedure: (§1) In order to directly observe insertions or deletions at the intended PCS 7-8 meganuclease target site, a deep sequencing protocol was used. 2e⁶ HEK 293 cells were electroporated with 5 ug of PCS 7-8 meganuclease mRNA using a BioRad Gene Pulser Xcell according to the manufacturer's instructions. A mock electroporation was also performed with no mRNA. At 48 hours post-transfection, genomic DNA (gDNA) was harvested from cells. The PCS 7-8 locus was amplified by PCR using primers that flank the PCS 7-8 recognition sequence. This amplicon was run on an agarose gel for visual confirmation, extracted using a Macherey-Nagel Nucleospin Gel and PCR Clean-up kit, and sequencing libraries were prepared using the NEBNext Ultra II DNA Library Kit for Illumina from New England Biolabs. The paired-end sequencing libraries were read on an Illumina Miseq DNA sequencer. Sequencing data was analyzed using custom scripts. Reads with start or end points not within 25 bp of the full-length amplicon were removed. The percent of reads with indels was calculated by dividing the number of full-length reads having an indel that incorporated at least one of the middle 8 bp of the recognition sequence by the total number of full-length reads.

PCS 7-8L.261 = biological target: T2, PCS 7-8L.261 (synthetic (I-CreI derived, …))
T2 chain: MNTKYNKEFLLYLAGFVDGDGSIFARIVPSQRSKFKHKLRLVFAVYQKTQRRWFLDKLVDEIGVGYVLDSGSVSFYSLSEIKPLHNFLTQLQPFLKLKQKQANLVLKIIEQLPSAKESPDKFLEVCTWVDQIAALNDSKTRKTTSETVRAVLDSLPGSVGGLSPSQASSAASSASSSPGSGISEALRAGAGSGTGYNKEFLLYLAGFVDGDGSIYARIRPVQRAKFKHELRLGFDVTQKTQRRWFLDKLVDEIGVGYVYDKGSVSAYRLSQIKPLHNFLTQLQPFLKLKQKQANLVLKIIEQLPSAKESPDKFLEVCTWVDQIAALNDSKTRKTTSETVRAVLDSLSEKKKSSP
Procedure: as §1

PCS 7-8L.209 = biological target: T3, PCS 7-8L.209 (synthetic (I-CreI derived, …))
T3 chain: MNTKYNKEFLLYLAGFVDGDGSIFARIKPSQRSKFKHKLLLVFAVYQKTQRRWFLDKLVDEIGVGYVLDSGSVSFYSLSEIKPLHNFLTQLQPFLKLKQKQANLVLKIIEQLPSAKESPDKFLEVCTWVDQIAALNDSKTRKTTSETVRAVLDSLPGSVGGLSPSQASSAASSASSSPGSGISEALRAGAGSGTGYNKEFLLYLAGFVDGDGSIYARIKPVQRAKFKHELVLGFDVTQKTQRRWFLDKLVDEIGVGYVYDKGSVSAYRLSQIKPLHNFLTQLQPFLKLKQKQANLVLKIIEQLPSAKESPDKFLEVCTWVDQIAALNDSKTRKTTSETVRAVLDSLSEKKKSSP
Procedure: as §1

PCS 7-8L.268 = biological target: T4, PCS 7-8L.268 (synthetic (I-CreI derived, …))
T4 chain: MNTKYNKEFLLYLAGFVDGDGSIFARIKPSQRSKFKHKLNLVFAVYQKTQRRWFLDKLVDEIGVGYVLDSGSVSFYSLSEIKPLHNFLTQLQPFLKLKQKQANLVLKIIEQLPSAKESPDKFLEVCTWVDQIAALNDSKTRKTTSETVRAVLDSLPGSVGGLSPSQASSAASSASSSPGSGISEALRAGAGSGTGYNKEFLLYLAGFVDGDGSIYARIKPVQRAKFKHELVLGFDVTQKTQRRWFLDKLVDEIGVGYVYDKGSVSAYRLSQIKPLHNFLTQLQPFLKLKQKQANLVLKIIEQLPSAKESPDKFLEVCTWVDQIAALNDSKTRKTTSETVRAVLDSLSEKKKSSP
Procedure: as §1

PCS 7-8L.204 = biological target: T5, PCS 7-8L.204 (synthetic (I-CreI derived, …))
T5 chain: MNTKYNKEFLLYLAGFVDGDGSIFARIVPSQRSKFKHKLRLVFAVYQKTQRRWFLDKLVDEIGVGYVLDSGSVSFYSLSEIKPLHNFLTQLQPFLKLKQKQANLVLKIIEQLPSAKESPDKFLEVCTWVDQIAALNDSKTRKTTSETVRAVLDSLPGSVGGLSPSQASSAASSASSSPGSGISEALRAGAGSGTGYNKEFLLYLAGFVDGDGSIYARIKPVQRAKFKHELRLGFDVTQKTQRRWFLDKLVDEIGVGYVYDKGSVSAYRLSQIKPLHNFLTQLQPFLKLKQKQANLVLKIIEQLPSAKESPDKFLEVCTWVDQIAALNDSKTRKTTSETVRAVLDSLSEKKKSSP
Procedure: as §1

B1: PCS 7-8 recognition sequence (dsDNA)
DNA 1: TGGACCTCTTTGCCCCAGGGGA
DNA 2: TCCCCTGGGGCAAAGAGGTCCA
- activity (PCS 7-8L.262): 53.5 % indels
- activity (PCS 7-8L.261): 55.4 % indels
- activity (PCS 7-8L.209): 53.2 % indels
- activity (PCS 7-8L.268): 52.5 % indels
- activity (PCS 7-8L.204): 58.4 % indels
